According to patent US9289468B2, “Fusion protein comprising circularly permuted form of trail/Apo2L, coding gene and use thereof” (Beijing Sunbio Biotech Co. Ltd., priority 2011, dated 2016):

Assays:
[1] = tested on: human MM RPMI8226 tumor cells; experiment: Apoptosis-inducing activity in vivo, RPMI8226 xenograft; set-up: species or system Balb/c nu athymic nude mice
From the text: Athymic nude mice were subcutaneously inoculated with human MM RPMI8226 tumor cells and treated with NCPT-1.M1, then tumor tissue was resected and subjected to conventional HE staining (A, B) and TUNEL staining of apoptotic cells (C, D).
Balb/c nu athymic nude mice (Beijing Huafukang Biotechnology Co., Ltd.) were subcutaneously inoculated with human MM RPMI8226 tumor cells. When the tumor grew to the volume of 700-800 mm3, the mice were divided into a control group (n=3) and a CPT treatment group (n=3), and were intraperitoneally injected with control or NCPT-1.M1 at a dose of 15 mg/kg once a day for 3 consecutive days. On day 4, the tumor volumes were measured (method same as the above), all animals were sacrificed, the tumors were resected and fixed in 10% formaldehyde solution. The tumor tissues were embedded in paraffin, cut into sections, and HE stained following the conventional methods. The apoptotic assay of the paraffin-embedded tissue sections were carried out following instructions of TUNEL Apoptosis Detection Kit (ZK-8005, Beijing Zhongshan Golden Bridge Biotechnology Co., Ltd.). […] To the contrary, the nucleus of normal cells are light blue or blue (FIG. 7A). Upon TUNEL staining, the nuclei of apoptotic cells are stained as brown (FIG. 7D).

[2] = tested on: H460 cells; experiment: Time-effect relationship in killing lung cancer cell line (phase contrast morphology); type: cell-based, human; settings: 50 ng/ml
Protocol: FIG. 1. Observation of the killing effect of NCPT-1.M1 on H460 cells under phase contrast microscope.
At 37° C., H460 cells (ATCC) were adherently cultured to logarithmic growth phase in RPMI1640 medium containing 10% FBS in cell culture flask in 5% CO2 incubator.

B1: NCPT-1.M1: MG+His6+NCPT-1 fusion protein, SEQ ID NO: 5 (protein)
chain: MGHHHHHHTLSSPNSKNEKALGRKINSWESSRSGHSFLSNLHLRNGELVIHEKGFYYIYSQTYFRFQEEIKENTKNDKQMVQYIYKYTSYPDPILLMKSARNSCWSKDAEYGLYSIYQGGIFELKENDRIFVSVTNEHLIDMDHEASFFGAFLVGGGGGGRVAAHITGTRGRSNT
modifications: NCPT-1.M1 polypeptide sequence
How did the “average tumor volume after treatment” value ([1]; 15 mg/kg i.p. once a day for 3 consecutive days, day 4) turn out when B1 was run?
The value was 286 mm^3.

And the “apoptosis of tumor cells in tumor tissue (HE and TUNEL staining)” value ([1]; 15 mg/kg i.p. once a day for 3 days)?
The value was “can quickly result in apoptosis of a lot of MM tumor cells”.

What about the “average tumor volume before dosing” value ([1]; RPMI8226 xenograft, before dosing) of the same molecule?
Its value is 798 mm^3.

And the “incubation time for appearance of morphological apoptosis changes” value [2]?
The value was 1-2 h.

And the “incubation time resulting in apoptosis of maximum number of cells” value [2]?
The value was 6 h.
